The values that follow come from paper PMC8842248.

Broadly, the Kd is the concentration at which binding is half-saturated.

The target of one experiment is PDE6D (Homo sapiens) (UniProt O43924). As to conditions: cited from earlier work.
Experiment [1] concerns the target KRAS WT peptide, …(OMe)-farnesyl. As to the kind of experiment: ITC; PDE6D (100-300 μM) in the syringe, peptides (10-30 μM) in the cell; 25 °C; 10 mM Tris pH 7.5, 150 mM NaCl, 2 mM DTT, 5% DMSO. A general note: Isothermal titration calorimetry measures the heat released or taken up as one component is titrated into another.
The target in experiment [2] is HRAS peptide, …(OMe)-farnesyl. The description is as above.

Sequence of INPP5E (Q9NRR6 1-641): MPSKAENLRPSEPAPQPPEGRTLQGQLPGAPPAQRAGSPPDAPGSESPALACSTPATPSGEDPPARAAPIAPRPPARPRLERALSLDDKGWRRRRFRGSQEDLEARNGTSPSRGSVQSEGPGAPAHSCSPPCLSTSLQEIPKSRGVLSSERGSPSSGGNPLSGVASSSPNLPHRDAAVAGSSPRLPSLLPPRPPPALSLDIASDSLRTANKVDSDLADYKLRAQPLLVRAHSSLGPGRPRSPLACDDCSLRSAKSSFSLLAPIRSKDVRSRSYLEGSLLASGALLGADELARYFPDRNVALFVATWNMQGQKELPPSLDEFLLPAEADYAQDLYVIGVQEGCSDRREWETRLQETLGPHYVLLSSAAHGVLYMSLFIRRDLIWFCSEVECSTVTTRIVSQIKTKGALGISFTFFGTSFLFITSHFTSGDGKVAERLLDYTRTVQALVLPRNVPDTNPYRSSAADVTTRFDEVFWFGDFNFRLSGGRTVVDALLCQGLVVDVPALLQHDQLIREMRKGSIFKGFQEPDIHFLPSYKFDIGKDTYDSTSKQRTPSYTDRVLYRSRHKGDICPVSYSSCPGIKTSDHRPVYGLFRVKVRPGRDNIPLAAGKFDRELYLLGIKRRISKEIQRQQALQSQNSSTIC

Take INPP5E (from UniProt Q9NRR6): in the experiment with PDE6D (Homo sapiens), the Kd was 10 nM. Turning to “PDE6D (phosphodiesterase 6 delta), wild type, polyhistidine tag removed (from UniProt O43924 1-150) (natural protein)”, the Kd in experiment [1] was found to be 1300 nM; in experiment [2] it was 2700 nM.
